Source: paper doi:10.1101/2020.12.16.421545v1

Substrate: CCCC(=O)Oc1ccc([N+](=O)[O-])cc1
Assay: purified protein
Format: biochemical, uncultured Pseudomonadota bacterium
Conditions: 36 nM enzyme, no added Co2+
[1] = without Triton X-100, sigmoidal (hysteresis)

B1: Ade1 (Amazonian Dark Earth Esterase 1) (uncultured Pseudomonadota bacterium) (protein)
chain: MLYAQVNGINLHYEIEGQGQPLLLIMGLGAPAAAWDPIFVQTLTKTHQVIIYDNRGTGLSDKPDMPYSIAMFASDAVGLLDALNIPRAHVFGVSMGGMIAQELAIHYPQRVASLILGCTTPGGKHAVPAPPESLKALEGRAGLTPEEAIREGWKLSFSEEFIHTHKAELEAHIPRLLAQLTPRFAYERHFQATMTLRVFKQLKEIQAPTLVATGRDDMLIPAVNSEILAREIPGAELAIFESAGHGFVTSAREPFLKVLKEFLARQSV
K0.5 (with Triton X-100): 254 ± 25 µM | kcat (with Triton X-100): 47 ± 1 s⁻¹ | K0.5 [1]: 392 ± 29 µM | kcat [1]: 94 ± 3 s⁻¹
